Experimental data taken from article PMC12482196.

Key:
[1] = tested on: T1, MBP-YlAaf1 (Yarrowia lipolytica), ORF:dd6ddf17; assay: EMSA; details: 10 mM Tris-HCl pH 7.5, 50 mM NaCl, 0.5 mM EDTA, 1 mM MgCl2, 4% glycerol, 0.5 mM DTT; 300 ng probe, 0-0.5 ug protein in 20 uL; 4% native PAGE in 0.5x TBE at …
T1 sequence: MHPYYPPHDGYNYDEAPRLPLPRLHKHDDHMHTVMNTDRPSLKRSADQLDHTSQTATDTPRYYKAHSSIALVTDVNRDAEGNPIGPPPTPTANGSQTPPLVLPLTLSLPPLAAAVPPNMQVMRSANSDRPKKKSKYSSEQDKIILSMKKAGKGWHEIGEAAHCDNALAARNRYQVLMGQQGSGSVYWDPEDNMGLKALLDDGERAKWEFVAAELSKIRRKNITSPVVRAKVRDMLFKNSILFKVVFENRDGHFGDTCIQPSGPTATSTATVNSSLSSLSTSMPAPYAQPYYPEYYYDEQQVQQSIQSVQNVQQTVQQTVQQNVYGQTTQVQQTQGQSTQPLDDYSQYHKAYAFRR

[2] = target: VC-YlAaf2 (Yarrowia lipolytica); assay: split reporter (BiFC, NanoBiT); BiFC with the N-terminal and C-terminal regions of Venus in S. cerevisiae YEF473A, cells grown at 30°C for 16 h in liquid SC-Ura-His medium, fluorescence microscopy, nucleus by DAPI

| percent of cells with the GFP signal in the nucleus [2] | Substance | binding [1] |
| --- | --- | --- |
| – | ACCTCCCTTCGTGGTTTATGACGAAACACGCTTAGCTAAAGTTCTAAAGGCTAATATTACGAACTCTGTGAAAAGGCGAAAAACCACAAAAGGGACGTGTGGTGTTGAAAAGGTGAAAAAGAGAAAACGAAAAGTCTGGCCGAAGTCAAT (double strand) [MHY1 promoter 150-bp probe] | no binding |
| 17 % of cells | VN-YlAaf1 (natural protein) | – |
